According to patent publication US20080058263A1 (published 2008):
Numbering of substitutions follows the chain as printed.

B1: 73-1 (ligand)
chain: GQNHHEVVKSIDNEWRKTQCMPREVCIDVGKEYPDEIEYIFKPPCVSVYRCGGCCNDEGLECVPTEESNITMQIMRIKPHQGQHIGEMSFLQHNKCECRPKKD
B2: 73-3 (ligand)
chain: B1 chain with D57S, E61Q
B3: 71-10 (ligand)
chain: GQNHHEVVKSIDNEWRKTQCMPREVCIDVGKEYPDEIEYIFKPSCVPLMRCGGCCNDEGLECMNTSTSYLSKTLFEITVPLSQGPKPVTISFLQHNKCECRPKKD
B4: 73-12 (ligand)
chain: B3 chain with S44P, P47S, L48V, M49Y, D57S, E61Q
B5: 71-12 (ligand)
chain: B3 chain with D57S, E61Q
B6: 73-10 (ligand)
chain: B3 chain with S44P, P47S, L48V, M49Y
B7: 71-16 (ligand)
chain: B3 chain with D57S, E61Q, L93A, Q94N, N96T, K97S, E99R, R101M, P102S, K104L
B8: 71-7 (ligand)
chain: GQNHHEVVKSIDNEWRKTQCMPREVCIDVGKEYPDEIEYIFKPSCVPLMRCGGCCNSEGLQCVPTEESNITMQIMRIKPHQGQHIGEMSFANHTSCRCMSKLD
B9: 73-5 (ligand)
chain: B8 chain with S44P, P47S, L48V, M49Y, S57D, Q61E
B10: 74-15 (ligand)
chain: GQNHHEVVKSIDNEWRKTQCMPREVCIDVGKEFGVATNTFFKPSCVPLMRCGGCCNSEGLQCVPTEESNITMQIMRITVPLSQGPKPVTISFANHTSCRCMSKLD
B11: 82-1 (ligand)
chain: AHYNTEILKFMDVYQRSYCHPIETLVDIFQEFGVATNTFFKPPCVSVYRCGGCCNDEGLECVPTEESNITMQIMRIKPHQGQHIGEMSFLQHNKCECRPKKD
B12: 82-3 (ligand)
chain: B11 chain with D56S, E60Q
B13: 74-1 (ligand)
chain: GQNHHEVVKSIDNEWRKTQCMPREVCIDVGKEFGVATNTFFKPSCVPLMRCGGCCNDEGLECVPTEESNITMQIMRIKPHQGQHIGEMSFLQHNKCECRPKKD
B14: 74-3 (ligand)
chain: B13 chain with D57S, E61Q
B15: 74-16 (ligand)
chain: GQNHHEVVKSIDNEWRKTQCMPREVCIDVGKEFGVATNTFFKPSCVPLMRCGGCCNSEGLQCMNTSTSYLSKTLFEITVPLSQGPKPVTISFANHTSCRCMSKLD
B16: 71-8 (ligand)
chain: GQNHHEVVKSIDNEWRKTQCMPREVCIDVGKEYPDEIEYIFKPSCVPLMRCGGCCNSEGLQCMNTSTSYLSKTLFEIKPHQGQHIGEMSFANHTSCRCMSKLD
B17: 74-6 (ligand)
chain: B16 chain with Y33F, P34G, D35V, E36A, I37T, E38N, Y39T, I40F, S57D, Q61E
B18: 74-2 (ligand)
chain: GQNHHEVVKSIDNEWRKTQCMPREVCIDVGKEFGVATNTFFKPSCVPLMRCGGCCNDEGLECMNTSTSYLSKTLFEIKPHQGQHIGEMSFLQHNKCECRPKKD
B19: 74-4 (ligand)
chain: B18 chain with D57S, E61Q
B20: 73-2 (ligand)
chain: GQNHHEVVKSIDNEWRKTQCMPREVCIDVGKEYPDEIEYIFKPPCVSVYRCGGCCNDEGLECMNTSTSYLSKTLFEIKPHQGQHIGEMSFLQHNKCECRPKKD

target: T1, VEGFR-1-Fc (UniProt P17948 27-338); assay: receptor-Fc IP
T1 construct: domain: first three Ig domains; expressed in Drosophila S2 cells, purified on Protein A sepharose; also called VEGFR-1-Fc fusion protein; not shown: Fc fragment from the Signal-pIgPlus vector
T1 sequence (P17948 27-338): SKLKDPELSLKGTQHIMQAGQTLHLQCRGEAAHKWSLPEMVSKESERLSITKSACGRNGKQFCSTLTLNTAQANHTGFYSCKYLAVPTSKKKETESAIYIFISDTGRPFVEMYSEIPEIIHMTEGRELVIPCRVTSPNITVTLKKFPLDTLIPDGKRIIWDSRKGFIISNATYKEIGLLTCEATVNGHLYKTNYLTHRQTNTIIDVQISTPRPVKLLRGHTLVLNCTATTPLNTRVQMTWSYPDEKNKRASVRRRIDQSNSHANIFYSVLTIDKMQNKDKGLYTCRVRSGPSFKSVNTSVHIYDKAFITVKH
In short: (§1)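 Binding of ligand from sample supernatant measured by pentahistidine-antibody immunoprecipitation. IP mix: PBS with 1.5% BSA, 0.06% Tween 20, 3 μg/ml heparin and 400 ng/ml fusion protein, added 1:2 to sample supernatant.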

Question: Does B1 bind?
Answer: no binding

Question: Does B2 bind?
Answer: no binding

Question: Does B3 bind?
Answer: no binding

Question: Does B4 bind?
Answer: no binding

Question: Does B5 bind?
Answer: no binding

Question: Does B6 bind?
Answer: no binding

Question: Does B7 bind?
Answer: no binding

Question: Does B8 bind?
Answer: no binding

Question: Does B9 bind?
Answer: no binding

Question: Does B10 bind?
Answer: no binding

Question: Does B11 bind?
Answer: no binding

Question: Does B12 bind?
Answer: no binding

Question: Does B13 bind?
Answer: no binding

Question: Does B14 bind?
Answer: no binding

Question: Does B15 bind?
Answer: no binding

Question: Does B16 bind?
Answer: no binding

Question: Does B17 bind?
Answer: no binding

Question: Does B18 bind?
Answer: no binding

Question: Does B19 bind?
Answer: no binding

Question: Does B20 bind?
Answer: no binding

target: T2, VEGFR-3-Fc (UniProt P35916 25-328); assay: receptor-Fc IP
T2 construct: domain: first three Ig domains; conditioned supernatant of 293T cells; also called VEGFR-3-Fc fusion protein; not shown: Fc fragment of the pIg vector
T2 sequence (looked up): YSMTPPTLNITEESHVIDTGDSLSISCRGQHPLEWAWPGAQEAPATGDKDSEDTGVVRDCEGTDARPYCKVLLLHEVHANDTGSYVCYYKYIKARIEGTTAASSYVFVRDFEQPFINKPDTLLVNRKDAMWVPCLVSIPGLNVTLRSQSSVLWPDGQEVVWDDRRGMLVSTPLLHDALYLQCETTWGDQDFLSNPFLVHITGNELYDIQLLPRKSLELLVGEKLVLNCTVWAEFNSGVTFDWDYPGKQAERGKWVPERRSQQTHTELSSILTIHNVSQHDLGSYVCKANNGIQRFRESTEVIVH
In short: as §1

Question: Does B1 bind?
Answer: no binding

Question: Does B2 bind?
Answer: no binding

Question: Does B3 bind?
Answer: no binding

Question: Does B4 bind?
Answer: no binding

Question: Does B5 bind?
Answer: no binding

Question: Does B6 bind?
Answer: no binding

Question: Does B7 bind?
Answer: no binding

Question: Does B8 bind?
Answer: no binding

Question: Does B9 bind?
Answer: no binding

Question: Does B10 bind?
Answer: no binding

Question: Does B11 bind?
Answer: no binding

Question: Does B12 bind?
Answer: no binding

Question: Does B13 bind?
Answer: no binding

Question: Does B14 bind?
Answer: no binding

Question: Does B15 bind?
Answer: no binding

Question: Does B16 bind?
Answer: no binding

Question: Does B17 bind?
Answer: no binding

Question: Does B18 bind?
Answer: no binding

Question: Does B19 bind?
Answer: no binding

Question: Does B20 bind?
Answer: no binding

target: T3, VEGFR-2-Fc (UniProt P35968 20-322); assay: receptor-Fc IP
T3 construct: domain: first 3 Ig domains; conditioned supernatant of 293T cells; also called VEGFR-2-Fc fusion protein; not shown: Fc fragment of the pIg vector
T3 sequence (P35968 20-322): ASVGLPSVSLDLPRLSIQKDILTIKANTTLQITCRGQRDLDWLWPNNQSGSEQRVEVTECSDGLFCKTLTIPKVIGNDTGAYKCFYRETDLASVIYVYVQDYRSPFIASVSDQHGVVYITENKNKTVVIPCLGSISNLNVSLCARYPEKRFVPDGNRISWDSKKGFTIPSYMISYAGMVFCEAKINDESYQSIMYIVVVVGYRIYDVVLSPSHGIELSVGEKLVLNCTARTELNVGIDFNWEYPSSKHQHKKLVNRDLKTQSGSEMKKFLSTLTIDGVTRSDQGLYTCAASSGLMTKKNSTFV
In short: as §1

Question: Does B1 bind?
Answer: no binding

Question: Does B2 bind?
Answer: no binding

Question: Does B3 bind?
Answer: no binding

Question: Does B4 bind?
Answer: no binding

Question: Does B5 bind?
Answer: no binding

Question: Does B6 bind?
Answer: no binding

Question: Does B7 bind?
Answer: no binding

Question: Does B8 bind?
Answer: no binding

Question: Does B9 bind?
Answer: no binding

Question: Does B10 bind?
Answer: no binding

Question: Does B11 bind?
Answer: no binding

Question: Does B12 bind?
Answer: no binding

Question: Does B13 bind?
Answer: no binding

Question: Does B14 bind?
Answer: no binding

Question: Does B15 bind?
Answer: no binding

Question: Does B16 bind?
Answer: no binding

Question: Does B17 bind?
Answer: no binding

Question: Does B18 bind?
Answer: no binding

Question: Does B19 bind?
Answer: no binding

Question: Does B20 bind?
Answer: no binding
